Measurements: patent US6444641

Target: serum albumin (UniProt P08835)
Test: cell-based or functional assay

Sequence of UniProt P08835 (P08835 25-607 limits assumed): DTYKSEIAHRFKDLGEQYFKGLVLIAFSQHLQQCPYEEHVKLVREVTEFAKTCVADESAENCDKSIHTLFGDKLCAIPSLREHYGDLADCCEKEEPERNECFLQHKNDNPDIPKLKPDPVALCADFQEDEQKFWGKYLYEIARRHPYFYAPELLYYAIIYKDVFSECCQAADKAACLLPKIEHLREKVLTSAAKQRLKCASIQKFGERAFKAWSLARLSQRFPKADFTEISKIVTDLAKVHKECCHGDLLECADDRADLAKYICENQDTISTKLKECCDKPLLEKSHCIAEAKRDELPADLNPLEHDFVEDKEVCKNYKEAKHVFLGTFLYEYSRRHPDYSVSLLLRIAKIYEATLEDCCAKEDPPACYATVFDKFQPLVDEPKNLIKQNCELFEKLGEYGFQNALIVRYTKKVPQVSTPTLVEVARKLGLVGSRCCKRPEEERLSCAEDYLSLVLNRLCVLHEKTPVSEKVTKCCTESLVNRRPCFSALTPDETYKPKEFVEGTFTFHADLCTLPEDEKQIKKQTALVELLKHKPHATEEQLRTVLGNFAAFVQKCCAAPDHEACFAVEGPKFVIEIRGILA

plasma drug levels at 100 minutes after subcutaneous injection (6 nmol/kg) in pigs, by double antibody radioimmunoassay: 18 fold
Substance: B29-N^ε-myristoyl human insulin (from UniProt P01308 90-110; P01308 25-54) (ligand)
